Measured values published in patent publication US20250051442A1 (UNIVERSITY OF TSUKUBA, published 2025).

T1: human DNAM-1 (human, UniProt Q15762 19-336)
T1 construct: whole, on cells; also called hDNAM-1; CD226
T1 sequence (looked up): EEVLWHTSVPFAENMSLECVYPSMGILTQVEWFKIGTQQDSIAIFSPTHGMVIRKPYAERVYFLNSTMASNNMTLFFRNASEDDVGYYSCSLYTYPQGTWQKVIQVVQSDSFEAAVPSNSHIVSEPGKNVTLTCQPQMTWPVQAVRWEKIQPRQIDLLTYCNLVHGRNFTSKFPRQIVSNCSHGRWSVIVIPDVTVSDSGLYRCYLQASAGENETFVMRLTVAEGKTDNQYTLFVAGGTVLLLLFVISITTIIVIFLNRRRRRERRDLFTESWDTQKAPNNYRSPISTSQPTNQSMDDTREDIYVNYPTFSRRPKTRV


Assays:
human DNAM-1 [1] = target: T1, human DNAM-1; assay: flow cytometry on hDNAM-1/BW cells, antibody purified from CHO-K1
Method: Binding to human DNAM-1 was examined by flow cytometry using a mouse lymphoblast BW5147 cell line (hereinafter, may be referred to as “BW”) and BW5147 stably expressing human hDNAM-1 (hereinafter, may be referred to as “hDNAM-1/BW”). Test antibodies at various concentrations were incubated with about […] hDNAM-1/BW cells at 4° C. for 1 hour in PBS (FACS buffer) containing 0.5% BSA and 0.05% NaN3. Thereafter, the cells were washed with ice-cooled FACS Buffer, and incubated at 4° C. for 30 minutes using a PE-labeled goat anti-human IgG antibody (manufactured by SouthernBiotech). After washing with FACS buffer, the stained cells were analyzed using a FACScan flow cytometer (manufactured by BD Biosciences).

human DNAM-1 [2] = target: T1, human DNAM-1; assay: flow cytometry on BW5147 cells stably expressing human DNAM-1 (hDNAM-1/BW)

EC50 (human DNAM-1 [1]) [µg/mL]	EC50 (human DNAM-1 [2]) [µg/mL]	Binder
5		humanized anti-DNAM-1 antibody hAKB1-B (antibody, human IgG1, kappa, L234A L235A, V domains shown, Full chains without signal peptide; also called phAKB1-B (expression vector); hAKB1-VH2 + hAKB1-VL1) VH: QVQLQESGPGLVKPSETLSLTCTVSGYSISSGYYWNWIRQPPGKGLEWMGYISYDGSNNYNPSLKNRVTISRDTSKNQFSLKLSSVTAADTAVYYCARAYYGNYVGYFDVWGQGTTVTVSS VL: DIQMTQSPSSLSASVGDRVTITCKASQSVSNDVAWYQQKPGKAPKLLIYYASNRYTGVPSRFSGSGYGTDFTFTISSLQPEDIATYYCQQDYSSPLTFGGGTKVEIKR
5		humanized anti-DNAM-1 antibody hAKB1-A (antibody, human IgG1, kappa, L234A L235A, V domains shown, Full chains without signal peptide; also called phAKB1-A (expression vector); hAKB1-VH1 + hAKB1-VL1) VH: QVQLQESGPGLVKPSETLSLTCTVSGYSITSGYYWNWIRQPPGKGLEWMGYISYDGSNNYNPSLKNRVTISRDTSKNQFSLKLSSVTAADTAVYYCARAYYGNYVGYFDVWGQGTTVTVSS VL: DIQMTQSPSSLSASVGDRVTITCKASQSVSNDVAWYQQKPGKAPKLLIYYASNRYTGVPSRFSGSGYGTDFTFTISSLQPEDIATYYCQQDYSSPLTFGGGTKVEIKR
	6	anti-human DNAM-1 monoclonal antibody mAKB1 (antibody, V domains shown, also called clone mAKB1) VH: DVQLQESGPGLVKPSQSLSLTCSVTGYSITSGYYWNWIRQFPGNKLEWMGYISYDGSNNYNPSLKNRISITRDTSKNQFFLKLNSVTTEDTATYYCARAYYGNYVGYFDVWGAGTTVTVSS VL: SIVMTQTPKFLLVSAGDRVTITCKASQSVSNDVAWYQQKPGQSPKLLIYYASNRYTGVPDRFTGSGYGTDFTFTISTVQAEDLAVYFCQQDYSSPLTFGAGTKLELKR
